Assay results published in patent US20200207853A1 (PHANES THERAPEUTICS, published 2020).

B1: H6L5 (antibody, V domains shown)
VH: QIQLVQSGAEVKKPGASVKVSCKASGYTFTAYYINWVRQAPGQRLEWIGWIYPGSGNTKYNEKFKGRVTLTVDTSASTAYIELSSLRSEDTAVYFCARRGPWYFDVWGQGTTVTVSS
VL: EIVMTQSPATLSLSPGERATLSCRASENVGTYVSWYQQKPGQAPNLLIYGASNRYTGIPARFSGSGSGTDFTLTISSLQPEDFAVYHCGQTYSYPLTFGQGTKLEIK
notes: also called humanized anti-CD47 mAb H6L5
B2: H5L5 (antibody, V domains shown)
VH: QIQLVQSGAEVKKPGASVKVSCKASGYTFTAYYINWVRQAPGQRLEWIGWIYPGSGNTKYNEKFKGRVTLTVDTSASTAYIELSSLRSEDTAVYYCARRGPWYFDVWGQGTTVTVSS
VL: EIVMTQSPATLSLSPGERATLSCRASENVGTYVSWYQQKPGQAPNLLIYGASNRYTGIPARFSGSGSGTDFTLTISSLQPEDFAVYHCGQTYSYPLTFGQGTKLEIK
notes: also called humanized anti-CD47 mAb H5L5
B3: H6L7 (antibody, V domains shown)
VH: QIQLVQSGAEVKKPGASVKVSCKASGYTFTAYYINWVRQAPGQRLEWIGWIYPGSGNTKYNEKFKGRVTLTVDTSASTAYIELSSLRSEDTAVYFCARRGPWYFDVWGQGTTVTVSS
VL: EIVMTQSPATLSLSPGERATLSCKASENVGTYVSWYQQKPGQSPNLLIYGASNRYTGIPDRFSGSGSGTDFTLTISSLQPEDFAVYHCGQTYSYPLTFGQGTKLEIK
notes: also called humanized anti-CD47 mAb H6L7
B4: H6L8 (antibody, V domains shown)
VH: QIQLVQSGAEVKKPGASVKVSCKASGYTFTAYYINWVRQAPGQRLEWIGWIYPGSGNTKYNEKFKGRVTLTVDTSASTAYIELSSLRSEDTAVYFCARRGPWYFDVWGQGTTVTVSS
VL: NIVMTQSPATLSLSPGERATLSCKASENVGTYVSWYQQKPGQSPNLLIYGASNRYTGVPDRFSGSGSATDFTLTISSLQPEDFADYHCGQTYSYPLTFGQGTKLEIK
notes: also called humanized anti-CD47 mAb H6L8
B5: H2L3 (antibody, V domains shown)
VH: QVQLVQSGAEVKKPGASVKLSCKASGYTFTSYWMHWVRQAPGQGLEWMGNIDPSDSETHYNQKFKDRVTLTVDTSTSTAYMELSSLRSEDTAVYYCSRWGYYGKSAMDYWGQGTLVTVSS
VL: AVQLTQSPSFLSASVGQRITINCRASKSISKYLAWYQEKPGKANKLLIYSGSTLQSGIPSRFSGSGSGTDFTLTISSLQPEDFAMYYCQQHNEYPWTFGGGTKVEIK
notes: also called humanized anti-CD47 mAb H2L3
B6: H3L9 (antibody, V domains shown)
VH: QVQLVQSGAEVKKPGASVKLSCKASGYTFTSYWMHWVRQAPGQGLEWIGNIDPSDSETHYNQKFKDRATLTVDTSTSTAYMELSSLRSEDTAVYYCSRWGYYGKSAMDYWGQGTLVTVSS
VL: DVQLTQSPSFLSASVGDRVTITCRASKSISKYLAWYQQKPGKANKLLIYSGSTLQSGVPSRFSGSGSGTEFTLTISSLQPEDFAMYYCQQHNEYPWTFGGGTKVEIK
notes: also called humanized anti-CD47 mAb H3L9
B7: H2L4 (antibody, V domains shown)
VH: QVQLVQSGAEVKKPGASVKLSCKASGYTFTSYWMHWVRQAPGQGLEWMGNIDPSDSETHYNQKFKDRVTLTVDTSTSTAYMELSSLRSEDTAVYYCSRWGYYGKSAMDYWGQGTLVTVSS
VL: AVQITQSPSFLSASVGQTITINCRASKSISKYLAWYQEKPGKANKLLIYSGSTLQSGIPSRFSGSGSGTDFTLTISSLEPEDFAMYYCQQHNEYPWTFGGGTKVEIK
notes: also called humanized anti-CD47 mAb H2L4
B8: H1L4 (antibody, V domains shown)
VH: QVQLVQSGAEVKKPGASVKVSCKASGYTFTSYWMHWVRQAPGQGLEWMGNIDPSDSETHYNQKFKDRVTLTVDTSTSTVYMELSSLRSEDTAVYYCSRWGYYGKSAMDYWGQGTLVTVSS
VL: AVQITQSPSFLSASVGQTITINCRASKSISKYLAWYQEKPGKANKLLIYSGSTLQSGIPSRFSGSGSGTDFTLTISSLEPEDFAMYYCQQHNEYPWTFGGGTKVEIK
notes: also called humanized anti-CD47 mAb H1L4
B9: H2L1 (antibody, V domains shown)
VH: QVQLVQSGAEVKKPGASVKLSCKASGYTFTSYWMHWVRQAPGQGLEWMGNIDPSDSETHYNQKFKDRVTLTVDTSTSTAYMELSSLRSEDTAVYYCSRWGYYGKSAMDYWGQGTLVTVSS
VL: AVQLTQSPSFLSASVGDRVTITCRASKSISKYLAWYQQKPGKANKLLIYSGSTLQSGVPSRFSGSGSGTEFTLTISSLQPEDFAMYYCQQHNEYPWTFGGGTKVEIK
notes: also called humanized anti-CD47 mAb H2L1
B10: H1L2 (antibody, V domains shown)
VH: QVQLVQSGAEVKKPGASVKVSCKASGYTFTSYWMHWVRQAPGQGLEWMGNIDPSDSETHYNQKFKDRVTLTVDTSTSTVYMELSSLRSEDTAVYYCSRWGYYGKSAMDYWGQGTLVTVSS
VL: AVQLTQSPSFLSASVGQRITINCRASKSISKYLAWYQQKPGKANKLLIYSGSTLQSGVPSRFSGSGSGTEFTLTISSLQPEDFAMYYCQQHNEYPWTFGGGTKVEIK
notes: Humanized from mouse 13B18A; also called humanized anti-CD47 mAb H1L2
B11: H3L2 (antibody, V domains shown)
VH: QVQLVQSGAEVKKPGASVKLSCKASGYTFTSYWMHWVRQAPGQGLEWIGNIDPSDSETHYNQKFKDRATLTVDTSTSTAYMELSSLRSEDTAVYYCSRWGYYGKSAMDYWGQGTLVTVSS
VL: AVQLTQSPSFLSASVGQRITINCRASKSISKYLAWYQQKPGKANKLLIYSGSTLQSGVPSRFSGSGSGTEFTLTISSLQPEDFAMYYCQQHNEYPWTFGGGTKVEIK
notes: also called humanized anti-CD47 mAb H3L2
B12: H1L3 (antibody, V domains shown)
VH: QVQLVQSGAEVKKPGASVKVSCKASGYTFTSYWMHWVRQAPGQGLEWMGNIDPSDSETHYNQKFKDRVTLTVDTSTSTVYMELSSLRSEDTAVYYCSRWGYYGKSAMDYWGQGTLVTVSS
VL: AVQLTQSPSFLSASVGQRITINCRASKSISKYLAWYQEKPGKANKLLIYSGSTLQSGIPSRFSGSGSGTDFTLTISSLQPEDFAMYYCQQHNEYPWTFGGGTKVEIK
notes: also called humanized anti-CD47 mAb H1L3
B13: H3L4 (antibody, V domains shown)
VH: QVQLVQSGAEVKKPGASVKLSCKASGYTFTSYWMHWVRQAPGQGLEWIGNIDPSDSETHYNQKFKDRATLTVDTSTSTAYMELSSLRSEDTAVYYCSRWGYYGKSAMDYWGQGTLVTVSS
VL: AVQITQSPSFLSASVGQTITINCRASKSISKYLAWYQEKPGKANKLLIYSGSTLQSGIPSRFSGSGSGTDFTLTISSLEPEDFAMYYCQQHNEYPWTFGGGTKVEIK
notes: also called humanized anti-CD47 mAb H3L4
B14: H8L10 (antibody, V domains shown)
VH: QVQLVQSGAEVKKPGASVKVSCKASGYTFTSYWMHWVRQAPGQGLEWIGNIDPSDSETHYAQKFQGRVTLTVDKSTSTVYMELSSLRSEDTAVYYCAGTDLAYWGQGTLVTVSS
VL: EIVMTQSPGTLSLSPGERATLSCHASQNINVWLSWYQQKPGQAPRLLIYKASNLHTGIPDRFSGSGSGTDFTLTISRLEPEDFAVYYCQQGQSYPFTFGQGTKVEIK
notes: Humanized from mouse 17C6A; also called humanized anti-CD47 mAb H8L10

These binders were tested against T1, Recombinant human CD47(ECD)-HIS (human, UniProt Q08722 19-139, limits assumed) (assay: competition ELISA: blocking of SIRPα binding to CD47(ECD)-HIS).
T1 construct: also called huCD47-HIS; not shown: HIS tag
T1 sequence (Q08722 19-139 limits assumed): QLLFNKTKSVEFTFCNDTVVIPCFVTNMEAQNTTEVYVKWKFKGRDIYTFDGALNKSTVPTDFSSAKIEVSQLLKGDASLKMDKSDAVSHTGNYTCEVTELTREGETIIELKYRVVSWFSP
B1 was tested, and the IC50 was 9.67 nM.
For B2, the IC50 was 15.1 nM.
With B3 the IC50 was 39.2 nM.
With B4 the IC50 was 13.2 nM.
With B5 the IC50 was 9.56 nM.
B6 showed an IC50 of 9.6 nM.
With B7 the IC50 was 6.52 nM.
B8 showed an IC50 of 8.09 nM.
B9 showed an IC50 of 4.73 nM.
B10 gave an IC50 of 6.8 nM.
Binder B11 has an IC50 of 7.88 nM.
Work on B12 yielded an IC50 of 7.43 nM.
For B13, the IC50 was 5.35 nM.
For B14, the IC50 was 1.05 nM.
